Here are results for three molecules from patent US8591913B2, “Methods of decreasing adipose tissue” (Toru Miyazaki, priority 2009, dated 2013).

The target of series [1] is T1, FAS (Mus musculus, UniProt P19096).
T1 construct: cell lysates were prepared, and the enzyme activity of FAS was measured; endogenous in cells; host or cells: 3T3-L1 cells (differentiating or differentiated)
The series can be described thus: FAS enzyme activity in lysates of loaded 3T3-L1 cells (malonyl-CoA consumption). It is filed as cell-based. The settings on record: C75 25 μM versus AIM 5 μg/mL, schedules (d) and (f). How it is done: Whether AIM affected an enzyme activity of FAS or not was examined.
In addition, as a schedule (f) similar to the above-mentioned schedule (e), AIM was loaded for 4 days (day 8 to day 12) after the 3T3-L1 cells differentiated, subsequently the cells were collected on the 10th day (day 12) after the initiation of the differentiation induction, cell lysates were prepared, and the enzyme activity of FAS was measured. The enzyme activity of FAS was measured based on a consumption amount of malonyl-CoA.
(§1) In addition, using a FAS inhibitor (C75) in place of AIM, the FAS inhibitor at a concentration of 25 μM was loaded according to the schedules (d) and (f), and as was the case with the above-mentioned AIM, the cells were collected on the 2nd day (day 4: schedule (d)) and 10th day (day 12: schedule (f)) after the initiation of the differentiation induction, and the enzyme activity of FAS was measured.
Further, for comparison, the cells cultured without loading AIM in the above-mentioned schedule (a) were also collected at times of the 2nd day (day 4) and 10th day (day 12) after the initiation of the differentiation induction, and the enzyme activity of FAS was measured.
FIG. 11B and FIG. 11C illustrate the results of measuring the FAS enzyme activity (Fatty acid synthase activity) (nmol NADPH/min/mg protein). FIG. 11B illustrates the results obtained on the 2nd day (day 4) after the initiation of the differentiation induction in the case of loading no AIM according to the schedule (a) (None), the case of loading AIM according to the schedule (d) (AIM (5 μg/mL)), and the case of loading the FAS inhibitor according to the schedule (d) (C75 (25 μM)). FIG. 11C illustrates the results obtained on the 10th day (day 12) after the initiation of the differentiation induction in the case of loading no AIM according to the schedule (a) (None), the case of loading AIM according to the schedule (f) (AIM (5 μg/mL)), and the case of loading the FAS inhibitor according to the schedule (f) (C75 (25 μM)).

In another series the test system is mice. The following applies: administration of C75 to mice, reported; cited from earlier work.
For another series, the system named is 3T3-L1 preadipocytes. Put plainly: Differentiation of 3T3-L1 preadipocytes into mature adipocytes, oil-red-o staining. The following applies: mouse AIM and human AIM compared, in vitro. In kind it is cell-based, mouse. The method, then: In order to examine how AIM produced by the macrophages infiltrating the adipose tissues works on surrounding adipocytes, an experiment in which AIM was loaded during a culture process of differentiating 3T3-L1 preadipocytes into the mature adipocytes was performed.
A recombinant mouse AIM protein and a recombinant human AIM protein were used as AIM. Those recombinant AIM proteins were prepared by culturing human-derived HEK293T cells transfected with a vector expressing mouse AIM or human AIM and isolating and purifying the protein from its culture supernatant. The same recombinant AIM proteins were also used as AIM in other examples shown below. AIM was loaded by adding AIM at a concentration of 5 μg/mL to the culture medium.
Differentiation induction (Induction) of the 3T3-L1 cells was initiated by first culturing the 3T3-L1 cells for 4 days (day −2 to day 2) to proliferate the cells (Cell proliferation) and subsequently culturing the cells in a culture medium containing insulin, dexamethasone (DEX), and isobutylmethylxanthine (IBMX) for 2 days (day 2 to day 4). The differentiation induction was further continued by culturing the cells in a culture medium containing insulin for 2 days (day 4 to day 6).
After the period of the differentiation induction (day 2 to day 6), the culture was continued in a culture medium not containing those differentiation-inducing factors. Then, the cells on the 10th day (day 12) after the initiation of the stimuli for differentiation induction were stained with oil-red-o, and the differentiation of the 3T3-L1 cells to mature adipocytes was observed.
as §1
FIG. 12A and FIG. 12B show the results of staining the cells with oil-red-o and analyzing the gene expression by RT-PCR on the 2nd day (day 4) after the initiation of the differentiation induction in the case of loading no AIM according to the schedule (a) (None), the case of loading AIM according to the schedule (d) (AIM (5 μg/mL)), and the case of loading the FAS inhibitor according to the schedule (d) (C75 (25 μM)), respectively.

Series [2] relates to mature adipocytes (differentiated 3T3-L1 cells). The series can be described thus: Induction of lipolysis in mature 3T3-L1 adipocytes (lipid droplets, glycerol and free fatty acid efflux). The following applies: mouse AIM and human AIM compared, same range of concentrations in vitro. It is filed as cell-based, mouse. The method, then:
The effect of AIM on mature adipocytes was examined.
Then, the cells on the 10th day (day 12) after the initiation of the stimuli for differentiation induction were stained with oil-red-o. The number of cells having lipid droplets was counted. Further, the diameter of lipid droplets was measured in the cells having lipid droplets. For comparison, the number of the cells was counted and the diameter of lipid droplets was measured for the cells cultured in the above-mentioned schedules (a) and (d).
Further, the supernatant of the culture medium after the cells were cultured while loading AIM according to the schedule (e) was collected, and amounts of glycerol and free fatty acid (FFA) contained in the supernatant were measured by ELISA. For the comparison, the amounts of glycerol and free fatty acid in the culture supernatant obtained according to the schedule (a) were also measured.
In order to avoid adsorption of free fatty acid to albumin contained in the culture medium, the culture medium supplemented with 10% FBS (fetal bovine serum) was exchanged to a serum-free culture medium on the 10th day (day 12) after the initiation of the differentiation induction, further the cells were cultured in the serum-free culture medium for 6 hours, and subsequently the amounts of glycerol and free fatty acid contained in the supernatant of the serum-free culture medium were measured.
FIG. 7A and FIG. 7B illustrate the evaluation results of the number (per 10^4 μm^2) of cells having lipid droplets (Droplet (+) cells) and the relative diameter of lipid droplets (%) obtained according to the schedules (a), (d), and (e) (Exp. a, d, and e), respectively. The relative diameter of lipid droplets illustrated in FIG. 7B was calculated by defining the diameter of lipid droplets in the cells obtained according to the schedule (a) without AIM loading as 100%. FIG. 8A and FIG. 8B illustrate the concentration of glycerol (Glycerol Efflux, mM) and the concentration of free fatty acid (FFA Efflux, ×10 mM) in the culture medium obtained according to the schedules (a) and (e) (Exp. a and e), respectively.
In addition, FIG. 13A and FIG. 13B illustrate the results of measuring the glycerol concentration (glycerol efflux, mM) and the free fatty acid concentration (FFA efflux, ×10 mM) in the culture medium on the 10th day (day 12) after the initiation of the differentiation induction in the case of loading no AIM according to the schedule (a) (None), the case of loading AIM according to the schedule (f) (AIM), and the case of loading the FAS inhibitor according to the schedule (f) (C75), respectively.

Series [3] relates to human mesenchymal stem cells (HMSCs). Put plainly: Adipogenesis of human mesenchymal stem cells (HMSCs) with rhAIM. In kind it is cell-based. How it is done:
In order to confirm that AIM also acts upon adipogenesis in human cells, the differentiation of human mesenchymal stem cells (HMSCs) (Lonza Walkersville Inc., USA) was stimulated in the presence or absence of recombinant human AIM (rhAIM).
That is, HMSCs were cultured in a mesenchymal stem cell basal medium (MSCBM) (Lonza Walkersville Inc.) for 10 days until the cells became confluent. Subsequently, the adipogenesis of the cells was stimulated by culturing the cells in the presence or absence of rhAIM (10 μg/mL) together with human insulin, MCGS, dexamethasone, indomethacin, and IBMX for 3 days (adipogenesis induction) (reference: Janderrova et al., Obes. Res., 11: 65, 2003). After the stimulation, the cells were cultured in MSCBM in which human insulin and MCGS had been added for an additional 10 days. Then, the cells were collected and stained with oil-red-o.
FIG. 36A, FIG. 36B, and FIG. 36C show the results of observing the cells before the stimulation of adipogenesis (Pre-stimulation), after the stimulation in the absence of rhAIM (rhAIM (−)), and after the stimulation in the presence of 10 μg/mL rhAIM (rhAIM (10 μg/mL)) under the phase contrast microscope, respectively.

In series [4] the target is T2, FAS (Homo sapiens, UniProt P49327).
T2 construct: expressed in transfected cells; host or cells: HEK293T
The series can be described thus: Co-immunoprecipitation of HA-tagged AIM and FLAG-tagged FAS in HEK293T cells. In kind it is binding. The settings on record: HEK293T cells co-expressing HA-tagged mouse AIM and FLAG-tagged FAS, anti-FLAG or anti-HA antibody. How it is done:
Thus, in order to confirm the fact, first, HEK293T cells which co-expressed both AIM (mouse AIM) fused with an HA-tag and FAS fused with a FLAG-tag were produced. Also, the HEK293T cells were collected after being cultured for a predetermined period of time, its cell lysate was prepared, and an immunoprecipitation was performed using an anti-FLAG antibody.
In addition, a co-immunoprecipitation study was performed using HEK293T cells which express both FAS tagged with FLAG and mouse AIM tagged with HA, and an anti-FLAG antibody or an anti-HA antibody.

Entries after “also recorded” stand apart in the source; their conditions may differ.

T2 sequence (P49327 whole entry): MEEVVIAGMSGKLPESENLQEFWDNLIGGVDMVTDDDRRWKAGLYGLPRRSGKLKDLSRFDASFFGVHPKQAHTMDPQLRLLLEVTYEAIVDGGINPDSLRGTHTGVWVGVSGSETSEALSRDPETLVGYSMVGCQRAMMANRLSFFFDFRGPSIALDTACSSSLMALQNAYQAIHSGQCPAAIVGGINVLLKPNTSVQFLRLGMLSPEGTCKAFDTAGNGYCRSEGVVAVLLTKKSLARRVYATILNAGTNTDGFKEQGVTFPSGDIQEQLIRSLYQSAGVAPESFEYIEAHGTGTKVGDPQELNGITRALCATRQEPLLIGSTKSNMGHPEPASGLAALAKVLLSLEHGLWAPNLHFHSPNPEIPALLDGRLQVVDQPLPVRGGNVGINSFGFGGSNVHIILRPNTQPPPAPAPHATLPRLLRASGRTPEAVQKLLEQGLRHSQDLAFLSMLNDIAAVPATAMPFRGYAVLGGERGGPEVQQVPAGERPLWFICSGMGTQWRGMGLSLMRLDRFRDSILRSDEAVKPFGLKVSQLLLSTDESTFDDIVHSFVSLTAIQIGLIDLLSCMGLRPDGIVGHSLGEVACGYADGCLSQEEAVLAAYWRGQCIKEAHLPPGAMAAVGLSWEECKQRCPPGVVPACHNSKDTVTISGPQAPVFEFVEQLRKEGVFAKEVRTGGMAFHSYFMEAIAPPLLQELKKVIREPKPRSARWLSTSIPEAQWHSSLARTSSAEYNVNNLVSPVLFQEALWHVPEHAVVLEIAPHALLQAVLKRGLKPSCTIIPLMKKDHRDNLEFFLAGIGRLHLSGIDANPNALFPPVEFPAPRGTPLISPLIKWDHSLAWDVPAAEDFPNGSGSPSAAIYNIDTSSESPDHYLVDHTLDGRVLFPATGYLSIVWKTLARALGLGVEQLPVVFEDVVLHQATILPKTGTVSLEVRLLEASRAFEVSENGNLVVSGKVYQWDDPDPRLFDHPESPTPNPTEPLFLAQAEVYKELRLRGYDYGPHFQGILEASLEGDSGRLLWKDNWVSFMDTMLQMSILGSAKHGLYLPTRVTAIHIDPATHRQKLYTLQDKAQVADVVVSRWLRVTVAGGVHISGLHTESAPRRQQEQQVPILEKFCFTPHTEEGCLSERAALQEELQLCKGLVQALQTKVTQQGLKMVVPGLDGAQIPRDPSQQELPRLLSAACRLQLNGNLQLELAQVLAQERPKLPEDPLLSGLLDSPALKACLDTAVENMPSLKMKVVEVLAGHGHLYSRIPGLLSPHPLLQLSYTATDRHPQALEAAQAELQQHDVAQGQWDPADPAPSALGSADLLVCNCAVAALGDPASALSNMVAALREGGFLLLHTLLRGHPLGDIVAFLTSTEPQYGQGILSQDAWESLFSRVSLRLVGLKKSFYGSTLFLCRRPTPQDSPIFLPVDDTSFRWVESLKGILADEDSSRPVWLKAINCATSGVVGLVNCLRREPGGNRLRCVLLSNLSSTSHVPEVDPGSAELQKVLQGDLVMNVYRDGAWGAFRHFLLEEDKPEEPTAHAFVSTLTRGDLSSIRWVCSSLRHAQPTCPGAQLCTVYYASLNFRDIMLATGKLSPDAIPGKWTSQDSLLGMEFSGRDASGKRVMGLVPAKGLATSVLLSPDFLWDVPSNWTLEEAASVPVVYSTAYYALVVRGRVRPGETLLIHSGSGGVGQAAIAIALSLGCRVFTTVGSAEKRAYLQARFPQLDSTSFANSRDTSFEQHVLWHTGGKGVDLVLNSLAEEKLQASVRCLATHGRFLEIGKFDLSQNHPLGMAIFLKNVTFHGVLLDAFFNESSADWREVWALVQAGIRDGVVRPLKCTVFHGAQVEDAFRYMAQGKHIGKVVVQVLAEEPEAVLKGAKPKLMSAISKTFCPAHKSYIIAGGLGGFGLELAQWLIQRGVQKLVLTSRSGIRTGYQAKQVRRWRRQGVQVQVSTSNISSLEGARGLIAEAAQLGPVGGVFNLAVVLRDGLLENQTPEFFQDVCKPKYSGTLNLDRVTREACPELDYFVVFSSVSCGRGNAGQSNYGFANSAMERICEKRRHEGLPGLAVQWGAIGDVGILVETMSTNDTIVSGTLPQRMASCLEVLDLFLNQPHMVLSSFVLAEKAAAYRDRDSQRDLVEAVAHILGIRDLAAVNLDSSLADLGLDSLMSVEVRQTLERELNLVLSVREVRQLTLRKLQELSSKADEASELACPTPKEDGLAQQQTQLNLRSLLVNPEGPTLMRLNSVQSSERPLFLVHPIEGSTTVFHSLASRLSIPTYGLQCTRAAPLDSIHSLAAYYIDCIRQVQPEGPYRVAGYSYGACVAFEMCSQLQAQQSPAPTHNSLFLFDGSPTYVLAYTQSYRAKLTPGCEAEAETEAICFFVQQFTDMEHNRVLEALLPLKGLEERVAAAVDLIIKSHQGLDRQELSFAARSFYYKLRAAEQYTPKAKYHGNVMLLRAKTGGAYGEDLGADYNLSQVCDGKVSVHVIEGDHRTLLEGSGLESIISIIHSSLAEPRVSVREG
T1 sequence (P19096 whole entry): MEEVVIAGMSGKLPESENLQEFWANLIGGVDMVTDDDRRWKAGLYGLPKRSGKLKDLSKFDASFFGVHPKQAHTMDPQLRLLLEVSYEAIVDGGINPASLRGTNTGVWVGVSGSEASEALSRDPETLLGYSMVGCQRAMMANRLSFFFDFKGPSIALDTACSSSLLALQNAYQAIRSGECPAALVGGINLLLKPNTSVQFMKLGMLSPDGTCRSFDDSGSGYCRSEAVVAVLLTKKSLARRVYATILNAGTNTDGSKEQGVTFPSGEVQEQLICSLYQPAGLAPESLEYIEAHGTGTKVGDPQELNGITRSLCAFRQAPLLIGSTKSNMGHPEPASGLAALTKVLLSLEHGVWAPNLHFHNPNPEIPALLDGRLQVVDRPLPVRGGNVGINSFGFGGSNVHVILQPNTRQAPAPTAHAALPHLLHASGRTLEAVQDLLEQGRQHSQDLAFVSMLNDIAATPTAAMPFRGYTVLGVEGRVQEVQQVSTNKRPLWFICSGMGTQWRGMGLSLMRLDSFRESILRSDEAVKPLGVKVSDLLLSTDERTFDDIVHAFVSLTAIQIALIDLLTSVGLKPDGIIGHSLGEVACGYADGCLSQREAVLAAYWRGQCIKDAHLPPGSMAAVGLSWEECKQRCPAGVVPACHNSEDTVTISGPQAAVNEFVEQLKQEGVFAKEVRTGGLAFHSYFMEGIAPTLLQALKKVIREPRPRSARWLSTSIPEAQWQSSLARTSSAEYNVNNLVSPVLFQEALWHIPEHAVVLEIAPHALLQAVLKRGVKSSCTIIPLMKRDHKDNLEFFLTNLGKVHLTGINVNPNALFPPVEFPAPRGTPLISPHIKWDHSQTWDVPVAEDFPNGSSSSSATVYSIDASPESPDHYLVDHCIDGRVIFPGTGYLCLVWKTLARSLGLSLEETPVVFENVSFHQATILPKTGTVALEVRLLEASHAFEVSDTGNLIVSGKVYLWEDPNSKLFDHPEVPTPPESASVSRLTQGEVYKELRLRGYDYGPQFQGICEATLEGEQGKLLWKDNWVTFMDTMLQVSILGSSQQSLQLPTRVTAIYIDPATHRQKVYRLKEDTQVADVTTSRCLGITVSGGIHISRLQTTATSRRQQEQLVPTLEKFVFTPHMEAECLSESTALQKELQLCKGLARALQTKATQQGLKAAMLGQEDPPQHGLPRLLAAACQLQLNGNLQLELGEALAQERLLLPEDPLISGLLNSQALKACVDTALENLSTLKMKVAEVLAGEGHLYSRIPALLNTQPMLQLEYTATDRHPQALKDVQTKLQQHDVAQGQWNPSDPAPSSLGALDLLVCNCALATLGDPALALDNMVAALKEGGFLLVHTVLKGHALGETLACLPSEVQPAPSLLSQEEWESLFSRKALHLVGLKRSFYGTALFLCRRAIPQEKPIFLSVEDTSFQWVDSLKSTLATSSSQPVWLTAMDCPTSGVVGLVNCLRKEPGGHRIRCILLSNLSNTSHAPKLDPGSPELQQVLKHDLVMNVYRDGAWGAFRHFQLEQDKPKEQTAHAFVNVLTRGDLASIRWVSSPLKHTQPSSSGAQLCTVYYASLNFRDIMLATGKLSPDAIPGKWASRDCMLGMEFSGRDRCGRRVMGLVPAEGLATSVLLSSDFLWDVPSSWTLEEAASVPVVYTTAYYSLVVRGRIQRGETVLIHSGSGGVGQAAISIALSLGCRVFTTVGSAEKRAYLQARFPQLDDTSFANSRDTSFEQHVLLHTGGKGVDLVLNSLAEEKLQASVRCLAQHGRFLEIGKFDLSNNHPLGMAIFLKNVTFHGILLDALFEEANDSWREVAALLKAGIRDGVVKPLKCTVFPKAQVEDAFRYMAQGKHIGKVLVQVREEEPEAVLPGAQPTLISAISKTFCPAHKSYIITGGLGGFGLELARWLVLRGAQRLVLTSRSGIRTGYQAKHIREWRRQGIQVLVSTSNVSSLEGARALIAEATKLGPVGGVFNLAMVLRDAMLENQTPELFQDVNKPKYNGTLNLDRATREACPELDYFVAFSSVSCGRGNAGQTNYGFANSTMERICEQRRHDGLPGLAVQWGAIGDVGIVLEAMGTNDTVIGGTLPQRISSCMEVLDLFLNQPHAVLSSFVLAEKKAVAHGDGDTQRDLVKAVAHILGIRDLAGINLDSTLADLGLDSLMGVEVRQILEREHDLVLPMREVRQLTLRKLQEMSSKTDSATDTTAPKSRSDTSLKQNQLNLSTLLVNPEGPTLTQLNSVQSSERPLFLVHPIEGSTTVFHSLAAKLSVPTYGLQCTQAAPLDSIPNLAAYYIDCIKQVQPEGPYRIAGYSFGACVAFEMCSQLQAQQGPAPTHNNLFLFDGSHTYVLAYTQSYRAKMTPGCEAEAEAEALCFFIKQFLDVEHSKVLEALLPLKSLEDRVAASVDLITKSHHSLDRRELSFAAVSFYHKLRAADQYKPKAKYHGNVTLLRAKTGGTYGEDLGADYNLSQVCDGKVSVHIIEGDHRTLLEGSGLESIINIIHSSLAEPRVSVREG

`C=C1C(=O)OC(CCCCCCCC)C1C(=O)O` (stereo not shown) [C75]: the “levels of reduction of the FAS enzyme activity, C75 compared with AIM” value at FAS [1] is reported as “almost the same”. Also, in the series on mice, the “amount of neuropeptide Y (NPY) produced in the hypothalamus” value is recorded as “reduces”, the appetite result is reported as “remarkable loss of appetite” and the body weight entry is on record as “body weight loss; also recorded: totally accelerated”.

B1: human AIM: protein consisting of the amino acid sequence shown in SEQ ID NO: 1; recombinant, purified from HEK293T culture supernatant (protein)
chain: MALLFSLILAICTRPGFLASPSGVRLVGGLHRCEGRVEVEQKGQWGTVCDDGWDIKDVAVLCRELGCGAASGTPSGILYEPPAEKEQKVLIQSVSCTGTEDTLAQCEQEEVYDCSHDEDAGASCENPESSFSPVPEGVRLADGPGHCKGRVEVKHQNQWYTVCQTGWSLRAAKVVCRQLGCGRAVLTQKRCNKHAYGRKPIWLSQMSCSGREATLQDCPSGPWGKNTCNHDEDTWVECEDPFDLRLVGGDNLCSGRLEVLHKGVWGSVCDDNWGEKEDQVVCKQLGCGKSLSPSFRDRKCYGPGVGRIWLDNVRCSGEEQSLEQCQHRFWGFHDCTHQEDVAVICSG
modifications: human
notes: recombinant, purified from HEK293T culture supernatant
For the molecule B1, the “differentiation of 3T3-L1 cells derived from mice / differentiation inhibitory function” value in the series with 3T3-L1 preadipocytes is “inhibited; also recorded: similarly exerted”. The “lipolysis induction function in adipocytes derived from mice” value in series [2] was “similarly exerted”. Besides, in series [3] (rhAIM 10 μg/mL during 3 days adipogenesis induction, oil-red-o), the “differentiation of HMSCs” value is given as “dramatically inhibited”. In addition, in series [3] (rhAIM 10 μg/mL, RT-PCR, compared with absence of rhAIM), the “mRNA level of Glut-4” value is on record as “remarkably decreased”.

B2: HA-AIM: AIM (mouse AIM) fused with an HA-tag (protein)
chain: ESPTKVQLVGGAHRCEGRVEVEHNGQWGTVCDDGWDRRDVAVVCRELNCGAVIQTPRGASYQPPASEQRVLIQGVDCNGTEDTLAQCELNYYVFDCSHEEDAGAQCENPDSDLLFIPEDVRLVDGPGHCQGRVEVLHQSQWSTVCKAGWNLQVSKVVCRQLGCGRALLTYGSCNKNTQGKGPIWMGKMSCSGQEANLRSCLLSRLENNCTHGEDTWMECEDPFELKLVGGDTPCSGRLEVLHKGSWGSVCDDNWGEKEDQVVCKQLGCGKSLHPSPKTRKIYGPGAGRIWLDDVNCSGKEQSLEFCRHRLWGYHDCTHKEDVEVICTDFDV
modifications: left off: small tags and cut ends
notes: AIM (mouse AIM) fused with an HA-tag
With B2, the “co-precipitation with FLAG-tagged FAS” value in the series with FAS [4] is “co-precipitation”; with FAS [4] (listed as mouse AIM tagged with HA), “co-precipitated mutually”.
